{"source": "patent US20040191271A1", "about": "(Pfizer, published 2004)", "molecular_target": "the molecule itself", "assay": "size exclusion chromatography (Superdex 200), self-association of identical subunits", "data": [{"protein": "Streptococcus pneumoniae undecaprenyl pyrophosphate synthase (enzyme, Homodimer of two identical subunits; Thrombin removed the tag before size exclusion and crystallization; also called UPS; UppS) AVEVEVPTQVPAHIGIIMDGNGRWAKKRMQPRVFGHKAGMEALQTVTKAANKLGVKVITVYAFSTENWTRPDQEVKFIMNLPVEFYDNYVPELHANNVKIQMIGETDRLPKQTFEALTKAEELTKNNTGLILNFALNYGGRAEITQALKLISQDVLDAKINPGDITEELIGNYLFTQHLPKDLRDPDLIIRTSGELRLSNFLPWQGAYSELYFTDTLWPDFDEAALQEAILAYNRRHRRFGGV", "values": [{"measurement": "binding result", "result": "binds"}]}]}
